For 4 molecules, Kd results are on record in publication PMC7527728, “CPSF6-Dependent Targeting of Speckle-Associated Domains Distinguishes Primate from Nonprimate Lentiviral Integration” (mBio, 2020).

What all share (test): fluorescence polarisation; 150 nM FITC-Ahx-labelled peptide mixed with increasing capsid NTD protein (2 μM to 2 mM) in 50 mM Tris-HCl pH 8.0, 50 mM NaCl, 384-well plates; one-site specific binding model; the EIAV constants are called apparent
What all share (conditions): both partners purified

In assay [1] the target is T1, CPSF6_(276–290) peptide (human, N-terminal fluorescein isothiocyanate (FITC)-Ahx).
T1 construct: also called CPSF6 peptide; fluorescently labeled CPSF6_(276–290) peptide; source: synthetic peptide (GenScript)

The target of assay [2] is T1, CPSF6_(276–290) peptide. The source holds these as a separate data set.
Assay [3] has as its target T2, CPSF6_(276–290/F284A) peptide (human, F284A (stands in the printed letters)).
T2 construct: cleavage and polyadenylation specificity factor 6 (CPSF6), human, residues 276-290 counted on the 551-residue isoform CPSF6[551], with F284A; source: synthetic peptide (GenScript)

Primed or numbered codes have the meaning given here. Ends that are not written are not given here. FITC′ = fluorescein isothiocyanate label; Ahx = NCCCCCC(=O)O A value given as a limit tells only on which side of the number the result lay.

B1: BIV capsid N-terminal domain (NTD) protein (domain or fragment)
chain: PAITTQDGTPRFDPDLMKQLKIWSDATERNGVDLHAVNILGVITANLVQEEIKLLLNSTPKWRLDVQLIESKVREKENAHRTWKQHHPEAPKTDEIIGKGLSSAEQATLISVECRETFRQWVLQAAMEVAQAKHATPG
For the molecule B1, the Kd with CPSF6_(276–290) peptide [1] is over 2000 µM; in the assay with CPSF6_(276–290) peptide [2] it was over 5000 µM; in assay [3] it was over 3000 µM.

B2: EIAV capsid N-terminal domain (NTD) protein (domain or fragment)
chain: PIMIDGAGNRNFRPLTPRGYTTWVNTIQTNGLLNEASQNLFGILSVDCTSEEMNAFLDVVPGQAGQKQILLDAIDKIADDWDNRHPLPNAPLVAPPQGPIPMTARFIRGLGVPRERQMEPAFDQFRQTYRQWIIEAMSEGIKVMIG
Consider B2, for which, in assay [3], the Kd was determined as 466 µM.

B3: MLV capsid N-terminal domain (NTD) protein (domain or fragment)
chain: PLRAGGNGQLQYWPFSSSDLYNWKNNNPSFSEDPGKLTALIESVLITHQPTWDDCQQLLGTLLTGEEKQRVLLEARKAVRGDDGRPTQLPNEVDAAFPLERPDWDYTTQAGRNHLVHYRQLLLAGLQNAGRS
On to B3, for which the Kd is over 2000 µM with CPSF6_(276–290) peptide [1] and over 5000 µM with CPSF6_(276–290) peptide [2].

B4: FIV capsid N-terminal domain (NTD) protein (domain or fragment)
chain: PIQTVNGVPQYVALDPKMVSIFMEKAREGLGGEEVQLWFTAFSANLTPTDMATLIMAAPGCAADKEILDESLKQLTAEYDRTHPPDAPRPLPYFTAAEIMGIGLTQEQQAEARFAPARMQCRAWYLEALGKLAAIKA
As to B4, the Kd in the assay with CPSF6_(276–290) peptide [1] was over 2000 µM; in the assay with CPSF6_(276–290) peptide [2], over 4000 µM; in assay [3], over 7000 µM.
